Biological target: T1, recombinant human CD25 his tagged (UniProt P01589 22-213)
T1 chain: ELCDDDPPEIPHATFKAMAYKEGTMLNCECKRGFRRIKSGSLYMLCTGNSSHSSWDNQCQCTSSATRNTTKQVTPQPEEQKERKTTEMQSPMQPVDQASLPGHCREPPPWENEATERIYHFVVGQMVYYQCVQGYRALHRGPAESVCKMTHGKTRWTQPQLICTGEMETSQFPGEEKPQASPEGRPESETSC
Test: BLI (Octet)

- Kd: 0.8 nM
B1: Antibody 1 as human IgG1 expressed in mammalian cells (antibody, V domains shown)
VH: EVQLVESGGGLIQPGGSLRLSCAASGFTLDSYGVSWVRQAPGKGLEWVGVTSSGGSAYYADSVKGRFTISRDNSKNTLYLQMNSLRAEDTAVYYCARDRYVYTGGYLYHYGMDLWGQGTLVTVSS
VL: DIQMTQSPSSLSASVGDRVTITCRASQSISDYLAWYQQKPGKVPKLLIYAASTLPFGVPSRFSGSGSGTDFTLTISSLQPEDVATYYCQGTYDSSDWYWAFGGGTKVEIK

From patent US20210054084A1 (published 2021)
